Results: US20140294844A1 (published 2014)

B1: huPrP23-231 (receptor)
chain: not shown

Experiments:
[1] = molecular target: A[beta]-derived diffusible ligands (ADDL) prepared from A[beta]1-42 (UniProt P05067 672-713)
[2] = molecular target: bADDL preparation from biotinylated A[beta]1-42 (bA[beta]1-42) (UniProt P05067 672-713)
huPrP23-231 = molecular target: B1

Binder | Kd [1] | Kd [2] | fold tighter binding than huPrP91-231 [2] | Kd (huPrP23-231) | Ki (huPrP23-231)
B1 | 100 nM | 82 nM | 100 fold | – | –
ICSM-18 (antibody, V domains shown) VH: EVQLQQSGPELVKPGSSVKISCKASRNTFTDYNLDWVKQSHGKTLEWIGNVYPNNGVTGYNQKFRGKATLTVDKSSSTAYMELHSLTSEDSAVYYCALYYYDVSYWGQGTLVTVSA VL: QIVLTQSPAIMSASPGEKVTMTCSASSSVSYMHWYQQKSGTSPKRWIYDTSKLASGVPARFSGSGSGTSYSLTISSMEAEDAATYFCHQWRSNPYTFGGGTKLEIKR | – | – | – | ~10 nM | ~20 nM
